Experimental data published in paper PMC6013222, “SNPs in inflammatory genes CCL11, CCL4 and MEFV in a fibromyalgia family study” (PLoS ONE, 2018).
Residue numbers refer to the chain shown, from its start. Numbers in names are those of the source.

T1: Recombinant human CCL4 (MIP-1β), wild type (human), P13236
T1 chain: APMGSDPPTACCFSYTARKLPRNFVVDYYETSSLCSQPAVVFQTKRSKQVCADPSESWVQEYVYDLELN

B1: Recombinant human CCL4 (MIP-1β), wild type, P13236 24-92 (ligand)
chain: T1 chain
B2: Recombinant human CCL4 variant (S80T) (ligand, UniProt P13236 24-92, looked up)
chain: T1 chain with S57T
notes: C-C motif chemokine 4 (CCL4, MIP-1β), human, natural variant Ser80Thr from SNP rs1719152, recombinant; On SEC two broad peaks: a high molecular weight aggregate (>300 kDa) and a 16 kDa dimer; also called varCCL4; variant CCL4; source: bought: Kingfisher Biotech, Inc

Columns and labels:
[1] = molecular target: T1, Recombinant human CCL4 (MIP-1β), wild …; experiment: SEC; Superdex 200 10/30 column, 0.5 mL/min in PBS, UV detection at 214 and 280 nm; conditions: remark: other sources report otherwise
[2] = molecular target: the molecule itself; experiment: as above

Binder | stoichiometry N [1] | stoichiometry N [2]
B1 | 2 | –
B2 | – | 2
